Experimental data from article PMC5988349 (Nature, 2018).

B1: dynein heavy chain (HC) residues 1-1455 (domain or fragment)
chain: MSEPGGGGGEDGSAGLEVSAVQNVADVSVLQKHLRKLVPLLLEDGGEAPAALEAALEEKSALEQMRKFLSDPQVHTVLVERSTLKEDVGDEGEEEKEFISYNINIDIHYGVKSNSLAFIKRTPVIDADKPVSSQLRVLTLSEDSPYETLHSFISNAVAPFFKSYIRESGKADRDGDKMAPSVEKKIAELEMGLLHLQQNIEIPEISLPIHPMITNVAKQCYERGEKPKVTDFGDKVEDPTFLNQLQSGVNRWIREIQKVTKLDRDPASGTALQEISFWLNLERALYRIQEKRESPEVLLTLDILKHGKRFHATVSFDTDTGLKQALETVNDYNPLMKDFPLNDLLSATELDKIRQALVAIFTHLRKIRNTKYPIQRALRLVEAISRDLSSQLLKVLGTRKLMHVAYEEFEKVMVACFEVFQTWDDEYEKLQVLLRDIVKRKREENLKMVWRINPAHRKLQARLDQMRKFRRQHEQLRAVIVRVLRPQVTAVAQQNQGEVPEPQDMKVAEVLFDAADANAIEEVNLAYENVKEVDGLDVSKEGTEAWEAAMKRYDERIDRVETRITARLRDQLGTAKNANEMFRIFSRFNALFVRPHIRGAIREYQTQLIQRVKDDIESLHDKFKVQYPQSQACKMSHVRDLPPVSGSIIWAKQIDRQLTAYMKRVEDVLGKGWENHVEGQKLKQDGDSFRMKLNTQEIFDDWARKVQQRNLGVSGRIFTIESTRVRGRTGNVLKLKVNFLPEIITLSKEVRNLKWLGFRVPLAIVNKAHQANQLYPFAISLIESVRTYERTCEKVEERNTISLLVAGLKKEVQALIAEGIALVWESYKLDPYVQRLAETVFNFQEKVDDLLIIEEKIDLEVRSLETCMYDHKTFSEILNRVQKAVDDLNLHSYSNLPIWVNKLDMEIERILGVRLQAGLRAWTQVLLGQAEDKAEVDMDTDAPQVSHKPGGEPKIKNVVHELRITNQVIYLNPPIEECRYKLYQEMFAWKMVVLSLPRIQSQRYQVGVHYELTEEEKFYRNALTRMPDGPVALEESYSAVMGIVSEVEQYVKVWLQYQCLWDMQAENIYNRLGEDLNKWQALLVQIRKARGTFDNAETKKEFGPVVIDYGKVQSKVNLKYDSWHKEVLSKFGQMLGSNMTEFHSQISKSRQELEQHSVDTASTSDAVTFITYVQSLKRKIKQFEKQVELYRNGQRLLEKQRFQFPPSWLYIDNIEGEWGAFNDIMRRKDSAIQQQVANLQMKIVQEDRAVESRTTDLLTDWEKTKPVTGNLRPEEALQALTIYEGKFGRLKDDREKCAKAKEALELTDTGLLSGSEERVQVALEELQDLKGVWSELSKVWEQIDQMKEQPWVSVQPRKLRQNLDALLNQLKSFPARLRQYASYEFVQRLLKGYMKINMLVIELKSEALKDRHWKQLMKRLHVNWVVSELTLGQIWDVDLQKNEAIVKDVLLVAQG
B2: BICDR1 (BICD related-1), as used for the cryo-EM of TDR (natural protein)
chain: MSAFCLGLAGRASAPAEPDSACCMELPAGAGDAVRSPATAAALVSFPGGPGELELALEEELALLAAGERSSEPGEHPQAEPESPVEGHGPPLPPPPTQDPELLSVIRQKEKDLVLAARLGKALLERNQDMSRQYEQMHKELTDKLEHLEQEKHELRRRFENREGEWEGRVSELETDVKQLQDELERQQLHLREADREKTRAVQELSEQNQRLLDQLSRASEVERQLSMQVHALKEDFREKNSSTNQHIIRLESLQAEIKMLSDRKRELEHRLSATLEENDLLQGTVEELQDRVLILERQGHDKDLQLHQSQLELQEVRLSYRQLQGKVEELTEERSLQSSAATSTSLLSEIEQSMEAEELEQEREQLRLQLWEAYCQVRYLCSHLRGNDSADSAVSTDSSMDESSETSSAKDVPAGSLRTALNDLKRLIQSIVDGVEPTVTLLSVEMTALKEERDRLRVTSEDKEPKEQLQKAIRDRDEAIAKKNAVELELAKCKMDMMSLNSQLLDAIQQKLNLSQQLEAWQDDMHRVIDRQLMDTHLKEQSRPAAAAFPRGHGVGRGQEPSTADGKRLFSFFRKI

Columns and labels:
cryo-EM structure = target: the molecule itself; assay: cryo-EM structure
[1] = target: β-actin subunit of pig dynactin (pig (endogenous in pig brain), UniProt Q6QAQ1 1-375); assay: cryo-EM structure

Binder | binding result (cryo-EM structure) | binding result [1]
B1 | binds | binds
B2 | binds | 
